{"source": "paper PMC2845643", "about": "(2011)", "assay_in_all_cases": "IAANS fluorescence titration", "key": {"[1]": {"target": "cardiac troponin C (L48Q TnC IAANS T53C) (Homo sapiens, UniProt P63316)"}, "[2]": {"target": "cardiac troponin C (M45Q TnC IAANS T53C) (Homo sapiens, UniProt P63316)"}, "[3]": {"target": "cardiac troponin C (V44Q TnC IAANS T53C) (Homo sapiens, UniProt P63316)"}, "[4]": {"target": "cardiac troponin C (F20Q TnC IAANS T53C) (Homo sapiens, UniProt P63316)"}, "[5]": {"target": "cardiac troponin C (TnC IAANS T53C) (Homo sapiens, UniProt P63316)"}}}
{"binder": "cardiac troponin I peptide TnI128-180 128-180 (protein) LTQKIFDLRGKFKRPTLRRVRISADAMMQALLGARAKESLDLRAHLKQVKKED", "values": [{"measurement": "Kd", "setting": "[1]", "result": 268, "unit": "nM"}, {"measurement": "Kd", "setting": "[2]", "result": 289, "unit": "nM"}, {"measurement": "Kd", "setting": "[3]", "result": 262, "unit": "nM"}, {"measurement": "Kd", "setting": "[4]", "result": 318, "unit": "nM"}, {"measurement": "Kd", "setting": "[5]", "result": 200, "unit": "nM"}]}
